Patent publication US20100015155A1

Molecular target: human soluble Abeta (1-40) (human) (UniProt P05067)
Experiment: KinExA equilibrium, antigen on sepharose beads, soluble Abeta (1-40) titrated, 37 C

human soluble Abeta (1-40) (human), sequence (P05067 672-711 limits assumed): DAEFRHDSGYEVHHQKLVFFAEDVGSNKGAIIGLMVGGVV

“murine 266 Fab (Fab fragment of the murine monoclonal antibody designated 266)” was tested, and the Kd was 0.24 nM.
